According to patent US12662531B2, “CLDN18.2 antibody and use thereof” (FUTUREGEN BIOPHARMACEUTICAL (BEIJING) CO., LTD., priority 2019, dated 2026):

Assays:
[1] = target: T1, CLDN18.2 (CT26-CLDN18.2 cells) (Homo sapiens, UniProt P56856); experiment: Flow cytometry binding of recombinant antibodies to CT26-CLDN18.2 cells; conditions: 4° C. 1 hour
T1 construct: expressed in transfected cells; host or cells: CT26 cells (mouse), lentiviral transduction, puromycin selection
Method: Binding activities of the recombinant monoclonal antibodies to CLDN18.2 were determined. Specifically, well-grown cell lines stably expressing CT26-CLDN18.2 were taken. The cells were washed with PBS, mixed with the fold-diluted antibody and incubated at 4° C. for 1 hour. The cells were washed once with flow cytometry buffer, PE-labeled anti-human IgG antibody was added, and incubated at 4° C. for 30 minutes. The supernatant was removed by centrifugation, and after the cells were washed with flow cytometry buffer, the fluorescence intensity on the surface of the cells was tested by flow cytometry. The relative binding activity of each antibody was calculated using the average fluorescence intensity.
The binding activity of the defucosylated antibodies 18.2-A1F, 18.2-A3F and 18.2-A4F to CLDN18.2 as compared to the binding activity of 18.2-A1, 18.2-A3 and 18.2-A4 to CLDN18.2 was tested by flow cytometry, the method of which is as described in Example 5, and the experimental results are shown in FIG. 7.

control CT26 cell line = experiment: Flow cytometry binding to control CT26 cell line; conditions: results not shown
[2] = target: T2, CLDN18.2 (CLDN18.2-Flag 293t cells) (Homo sapiens, UniProt P56856); experiment: Binding specificity, 293t cells expressing CLDN18.2-Flag, flow cytometry; conditions: 10 μg/ml antibody, 4° C. 1 hour
T2 construct: expressed in transfected cells; host or cells: 293t cells, transient transfection
Source text: (§1) Human Claudin18 proteins include two homologues, i.e., CLDN18.1 and CLDN18.2, which share exons other than exon 1, and the exon 1 sequences of CLDN18.1 and CLDN18.2 are highly similar with only 8 different amino acids in the first extracellular region. The exon 1 of CLDN18.1 and the exon 1 of CLDN18.2 are specifically expressed in different tissues driven by different promoters. Among them, CLDN18.1 is specifically expressed in lung epithelial cells, while CLDN18.2 is specifically expressed in gastric epithelial cells. To identify the specificity of the screened CLDN18.2 antibodies, binding of the antibodies to CLDN18.1 and CLDN18.2 was tested.
(§2) Specifically, well-grown 293t cells were taken to transiently express flag-tagged CLDN18.1 (CLDN18.1-Flag) or CLDN18.2 (CLDN18.2-Flag). 48 hours after transfection, the cells were digested with trypsin. After washed with flow cytometry buffer, the cells were mixed with 10 μg/ml of isotype control antibody or one of the above five CLDN18.2 antibodies in 200 μl of flow cytometry buffer, and were incubated at 4° C. for 1 hour. Subsequently, the cells were washed once with flow cytometry buffer, PE-labeled anti-human IgG antibody was added, and incubated at 4° C. for 30 min. The supernatant was removed by centrifugation, wash was performed twice with flow cytometry buffer, and the cells were fixed in a fix solution containing 1% paraformaldehyde and 0.5% triton-X100 and the cell membrane was permeabilized. Subsequently, the cells were incubated with APC-labeled anti-flag antibody for 30 min and tested by flow cytometry.

[3] = target: T3, CLDN18.1 (CLDN18.1-Flag 293t cells) (Homo sapiens, UniProt P56856); experiment: Binding specificity, 293t cells expressing CLDN18.1-Flag, flow cytometry; conditions: 10 μg/ml antibody, 4° C. 1 hour
T3 construct: expressed in transfected cells; host or cells: 293t cells, transient transfection
Source text: as §1, §2

[4] = test system: SNU601 cells expressing CLDN18.2; experiment: Endocytosis of antibody after binding to SNU601 cells stably expressing CLDN18.2; format: cell-based; conditions: 10 μg/ml, 4 h
Method: It has been reported that the binding of some antibodies to cell surface antigens can cause endocytosis of antigen and antibody complexes, thereby reducing the expression level of the cell surface antigens and accelerating antibody metabolism in vivo (Schrama D et al., 2006, Nat Rev Drug Discov). In this example, the ability of antibodies 18.2-A1, 18.2-A3, 18.2-A4 and 18.2-A6 to be endocytosed by cells was tested in SNU601 cells stably expressing CLDN18.2. […] Subsequently, they were washed at 4° C. and stained with PE-labeled anti-human IgG antibody. After fixation with 4% formalin, antibody binding on the cell surface was tested by flow cytometry.

FcγRIIIa = experiment: Biacore binding to FcγRIIIa; conditions: FcγRIIIa captured as ligand, antibody as analyte
Method: Subsequently, the binding activity of the CLDN18.2 antibody and its defucosylated form to FcγRIIIa was tested using the Biacore method. Specifically, FcγRIIIa (Sino Biological Inc, 10389-H08C1) was diluted to 0.1 μg/ml in HBS-EP buffer as a ligand, and 18.2-A1F and 18.2-A1 antibody samples were diluted to 360 μg/ml, 120 μg/ml, 40 μg/ml, 13.3 μg/ml and 4.4 μg/ml respectively as analytes. The ligand FcγRIIIa was immobilized using an indirect capture method. First, 50 μg/ml of Anti-His IgG was covalently bound to the surface of CMS chip through amino coupling, followed by the binding of the ligand and analyte. Affinity analysis experiments were performed in Biacore Wizard mode using a multi-cycle approach with FcγRIIIa as the ligand and 18.2-A1F and 18.2-A1 antibody samples as analytes.
The test for each sample includes three Start up, one zero concentration control, five gradient concentration samples and one replicate sample (reference). The chip was regenerated with 10 mM glycine-HCl, pH 1.5 regeneration solution after each cycle. Each concentration cycle of the analyte was set with a capture time of 60 s and a flow rate of the ligand solution of 10 μl/min; a binding time of ligand and analyte of 180 s, and a flow rate of the analyte solution of 30 μl/min; and a dissociation time of 180 s. The CMS chip coupled with Anti-His IgG was placed in the slot for detection and analysis. […]

[5] = test system: human FcγRIIIa (V158) on FcγRIIIa-Jurkat cells; experiment: Flow cytometry binding to FcγRIIIa-Jurkat cells
Source text: We next further tested the binding activity of the CLDN18.2 antibodies and their defucosylated forms to FcγRIIIa expressed on the cell surface. Specifically, the human FcγRIIIa (V158, high FC binding subtype) gene was cloned into a mammalian cell expression vector carrying a puromycin screening marker and transfected into a Jurkat cell line. A cell line stably expressing FcγRIIIa (FcγRIIIa-Jurkat) was screened with puromycin. In addition, NK92MI is a human NK cell line that naturally expresses the FcγRIIIa receptor (F158, low FC binding subtype). The binding ability of the CLDN18.2 antibodies and their defucosylated forms to FcγRIIIa expressed on the surface of FcγRIIIa-jurkat cells and NK92MI cells was tested by flow cytometry. The specific flow cytometry assay is described with reference to Example 6.

[6] = test system: untransfected Jurkat cells; experiment: Flow cytometry binding to untransfected Jurkat cells; conditions: results not shown

- binding to CT26 cell line expressing CLDN18.2 [1]: able to bind well
- binding to CLDN18.2-flag transfected positive 293t cells [2]: able to bind well
- binding to CLDN18.1-positive cells [3]: none of the six antibodies bound
- binding to FcγRIIIa (Biacore) (FcγRIIIa): able to bind to FcγRIIIa effectively
B1: 18.2-A1: recombinant monoclonal CLDN18.2 antibody, VH SEQ ID NO: 1, VL SEQ ID NO: 6 (antibody, V domains shown)
VH: EVQLVQSGAEVKKPGASVKVSCKASGYTFTSSWLIWVRQAPGQGLEWIGTIVPSDSYTNYNQKFKDRATLTVDKSTSTAYMELSSLRSEDTAVYYCTRFRTGNSFDYWGQGTLVTVSS
VL: DIVMTQSPDSLSVGLGERATINCKSSQSVLNSGNQKNYLTWYQQKPGQPPKLLIYWAVARQSGVPDRFSGSGSGTDFTLTISSLQAEDVAVYYCQNSIAYPFTFGQGTKVEIK
modifications: 18.2-A1 VH; 18.2-A1 VL
- binding to control CT26 cell line (control CT26 cell line): did not bind
- binding to SNU601 cells expressing CLDN18.2 under 4° C. incubation ([4]; 4° C.): bound well
- antibody staining/binding on the cell surface under 37° C. incubation ([4]; 37° C.): still bound well
- endocytosis by cells under 37° C. incubation ([4]; 37° C.): did not undergo significant endocytosis
- binding to FcγRIIIa-jurkat cells [5]: able to bind
- binding to untransfected Jurkat cells [6]: not able to bind
